Laboratory results: patent US20200165325A1

Key:
[1] = target: HIV-1 Env of strain 0330.v4.c3 (HIV-1)
[2] = target: HIV-1 Env of strain 0815.v3.c3 (HIV-1)
[3] = target: HIV-1 Env of strain 1006_11_C3_1601 (HIV-1)
[4] = target: HIV-1 Env of strain 1054_07_TC4_1499 (HIV-1)
[5] = target: HIV-1 Env of strain 211-9 (HIV-1)
[6] = target: HIV-1 Env of strain 231965.c01 (HIV-1)
[7] = target: HIV-1 Env of strain 231966.c02 (HIV-1)
[8] = target: HIV-1 Env of strain 3103.v3.c10 (HIV-1)
[9] = target: HIV-1 Env of strain 3301.v1.c24 (HIV-1)
[10] = target: HIV-1 Env of strain 3415.v1.c1 (HIV-1)
[11] = target: HIV-1 Env of strain 620345.c01 (HIV-1)
[12] = target: HIV-1 Env of strain 62357_14_D3_4589 (HIV-1)
[13] = target: HIV-1 Env of strain 6540.v4.c1 (HIV-1)
[14] = target: HIV-1 Env of strain 6545.v4.c1 (HIV-1)
[15] = target: HIV-1 Env of strain 6811.v7.c18 (HIV-1)
[16] = target: HIV-1 Env of strain 703357.C02 (HIV-1)
[17] = target: HIV-1 Env of strain 928-28 (HIV-1)
[18] = target: HIV-1 Env of strain AC10.0.29 (HIV-1)
[19] = target: HIV-1 Env of strain C2101.c01 (HIV-1)
[20] = target: HIV-1 Env of strain C3347.c11 (HIV-1)
[21] = target: HIV-1 Env of strain CAAN5342.A2 (HIV-1)
[22] = target: HIV-1 Env of strain CAP210.2.00.E8 (HIV-1)
[23] = target: HIV-1 Env of strain CNE17 (HIV-1)
[24] = target: HIV-1 Env of strain CNE20 (HIV-1)
[25] = target: HIV-1 Env of strain CNE21 (HIV-1)
[26] = target: HIV-1 Env of strain CNE30 (HIV-1)
[27] = target: HIV-1 Env of strain CNE53 (HIV-1)
[28] = target: HIV-1 Env of strain Ce0393_C3 (HIV-1)
[29] = target: HIV-1 Env of strain Ce1176_A3 (HIV-1)
[30] = target: HIV-1 Env of strain Ce2010_F5 (HIV-1)
[31] = target: HIV-1 Env of strain Ce2060_G9 (HIV-1)
[32] = target: HIV-1 Env of strain Ce703010054_2A2 (HIV-1)
[33] = target: HIV-1 Env of strain Du156.12 (HIV-1)
[34] = target: HIV-1 Env of strain Du172.17 (HIV-1)
[35] = target: HIV-1 Env of strain Du422.1 (HIV-1)
[36] = target: HIV-1 Env of strain P1981_C5_3 (HIV-1)
[37] = target: HIV-1 Env of strain Q23.17 (HIV-1)
[38] = target: HIV-1 Env of strain Q259.d2.17 (HIV-1)
[39] = target: HIV-1 Env of strain Q461.e2 (HIV-1)
[40] = target: HIV-1 Env of strain Q769.d22 (HIV-1)
[41] = target: HIV-1 Env of strain R1166.c01 (HIV-1)
[42] = target: HIV-1 Env of strain REJO4541.67 (HIV-1)
[43] = target: HIV-1 Env of strain RHPA4259.7 (HIV-1)
[44] = target: HIV-1 Env of strain SC422661.8 (HIV-1)
[45] = target: HIV-1 Env of strain T250-4 (HIV-1)
[46] = target: HIV-1 Env of strain T251-18 (HIV-1)
[47] = target: HIV-1 Env of strain THRO4156.18 (HIV-1)
[48] = target: HIV-1 Env of strain TRJO4551.58 (HIV-1)
[49] = target: HIV-1 Env of strain WEAU_d15_410_787 (HIV-1)
[50] = target: HIV-1 Env of strain WITO4160.33 (HIV-1)
[51] = target: HIV-1 Env of strain X2131_C1_B5 (HIV-1)
[52] = target: HIV-1 Env of strain ZM109F.PB4 (HIV-1)
[53] = target: HIV-1 Env of strain ZM135M.PL10a (HIV-1)
[54] = target: HIV-1 Env of strain ZM197M.PB7 (HIV-1)
[55] = target: HIV-1 Env of strain ZM233M.PB6 (HIV-1)
[56] = target: HIV-1 Env of strain ZM247v1(Rev-) (HIV-1)
[57] = target: HIV-1 Env of strain ZM53M.PB12 (HIV-1)

With NIH45-46 G54Y IgG (antibody) the In vitro neutralization IC80 [1] was 0.09 µg/mL, the In vitro neutralization IC80 [2] was 0.015 µg/mL and the In vitro neutralization IC80 [3] was 0.021 µg/mL. For the same substance, the In vitro neutralization IC80 [4] was 0.236 µg/mL, the In vitro neutralization IC80 [5] was greater than 50 µg/mL and the In vitro neutralization IC80 [6] was 0.054 µg/mL. It also gave an In vitro neutralization IC80 [7] of 0.23 µg/mL, an In vitro neutralization IC80 [8] of 0.81 µg/mL and an In vitro neutralization IC80 [9] of 0.014 µg/mL. It also gave an In vitro neutralization IC80 [10] of 0.037 µg/mL, an In vitro neutralization IC80 [11] greater than 50 µg/mL and an In vitro neutralization IC80 [12] of 0.09 µg/mL. The In vitro neutralization IC80 [13] was greater than 50 µg/mL, the In vitro neutralization IC80 [14] was greater than 50 µg/mL and the In vitro neutralization IC80 [15] was 0.059 µg/mL. For the same substance, the In vitro neutralization IC80 [16] was 30.6 µg/mL, the In vitro neutralization IC80 [17] was 0.33 µg/mL and the In vitro neutralization IC80 [18] was 0.9 µg/mL. It also gave an In vitro neutralization IC80 [19] of 0.27 µg/mL, an In vitro neutralization IC80 [20] of 0.052 µg/mL and an In vitro neutralization IC80 [21] of 0.27 µg/mL. The In vitro neutralization IC80 [22] was greater than 50 µg/mL, the In vitro neutralization IC80 [23] was 0.264 µg/mL and the In vitro neutralization IC80 [24] was 2.4 µg/mL. It also gave an In vitro neutralization IC80 [25] of 0.29 µg/mL, an In vitro neutralization IC80 [26] of 0.263 µg/mL and an In vitro neutralization IC80 [27] of 0.027 µg/mL. It also gave an In vitro neutralization IC80 [28] of 0.134 µg/mL, an In vitro neutralization IC80 [29] of 0.58 µg/mL and an In vitro neutralization IC80 [30] of 0.235 µg/mL. For the same substance, the In vitro neutralization IC80 [31] was 0.068 µg/mL, the In vitro neutralization IC80 [32] was 0.07 µg/mL and the In vitro neutralization IC80 [33] was 0.026 µg/mL. The In vitro neutralization IC80 [34] was greater than 50 µg/mL, the In vitro neutralization IC80 [35] was greater than 50 µg/mL and the In vitro neutralization IC80 [36] was 0.09 µg/mL. For the same substance, the In vitro neutralization IC80 [37] was 0.06 µg/mL, the In vitro neutralization IC80 [38] was 0.034 µg/mL and the In vitro neutralization IC80 [39] was 0.103 µg/mL. It also gave an In vitro neutralization IC80 [40] of 0.024 µg/mL, an In vitro neutralization IC80 [41] of 0.84 µg/mL and an In vitro neutralization IC80 [42] of 0.02 µg/mL. For the same substance, the In vitro neutralization IC80 [43] was 0.02 µg/mL, the In vitro neutralization IC80 [44] was 0.09 µg/mL and the In vitro neutralization IC80 [45] was greater than 50 µg/mL. The In vitro neutralization IC80 [46] was 1.16 µg/mL, the In vitro neutralization IC80 [47] was 2.14 µg/mL and the In vitro neutralization IC80 [48] was 0.07 µg/mL. It also gave an In vitro neutralization IC80 [49] of 0.008 µg/mL, an In vitro neutralization IC80 [50] of 0.09 µg/mL and an In vitro neutralization IC80 [51] of 0.39 µg/mL. It also gave an In vitro neutralization IC80 [52] of 0.168 µg/mL, an In vitro neutralization IC80 [53] of 0.3 µg/mL and an In vitro neutralization IC80 [54] of 0.21 µg/mL. It also gave an In vitro neutralization IC80 [55] of 0.78 µg/mL, an In vitro neutralization IC80 [56] of 3.57 µg/mL and an In vitro neutralization IC80 [57] of 0.22 µg/mL.
NIH45-46 IgG (wild type) (antibody) was tested, and the In vitro neutralization IC80 [1] was 0.3 µg/mL, the In vitro neutralization IC80 [2] was 0.052 µg/mL and the In vitro neutralization IC80 [3] was 0.196 µg/mL. For the same substance, the In vitro neutralization IC80 [4] was 0.404 µg/mL, the In vitro neutralization IC80 [5] was greater than 50 µg/mL and the In vitro neutralization IC80 [6] was 0.126 µg/mL. The In vitro neutralization IC80 [7] was 9.64 µg/mL, the In vitro neutralization IC80 [8] was 6.15 µg/mL and the In vitro neutralization IC80 [9] was 0.033 µg/mL. For the same substance, the In vitro neutralization IC80 [10] was 0.086 µg/mL, the In vitro neutralization IC80 [11] was greater than 50 µg/mL and the In vitro neutralization IC80 [12] was 0.19 µg/mL. For the same substance, the In vitro neutralization IC80 [13] was greater than 50 µg/mL, the In vitro neutralization IC80 [14] was greater than 50 µg/mL and the In vitro neutralization IC80 [15] was 0.113 µg/mL. It also gave an In vitro neutralization IC80 [16] greater than 50 µg/mL, an In vitro neutralization IC80 [17] of 0.64 µg/mL and an In vitro neutralization IC80 [18] of 1.93 µg/mL. It also gave an In vitro neutralization IC80 [19] of 31.4 µg/mL, an In vitro neutralization IC80 [20] of 0.094 µg/mL and an In vitro neutralization IC80 [21] of 0.4 µg/mL. For the same substance, the In vitro neutralization IC80 [22] was greater than 50 µg/mL, the In vitro neutralization IC80 [23] was 0.734 µg/mL and the In vitro neutralization IC80 [24] was greater than 50 µg/mL. For the same substance, the In vitro neutralization IC80 [25] was 38.1 µg/mL, the In vitro neutralization IC80 [26] was 1.07 µg/mL and the In vitro neutralization IC80 [27] was 0.039 µg/mL. It also gave an In vitro neutralization IC80 [28] of 0.936 µg/mL, an In vitro neutralization IC80 [29] of 3.17 µg/mL and an In vitro neutralization IC80 [30] of 0.357 µg/mL. For the same substance, the In vitro neutralization IC80 [31] was 0.29 µg/mL, the In vitro neutralization IC80 [32] was 0.538 µg/mL and the In vitro neutralization IC80 [33] was 0.054 µg/mL. It also gave an In vitro neutralization IC80 [34] greater than 50 µg/mL, an In vitro neutralization IC80 [35] greater than 50 µg/mL and an In vitro neutralization IC80 [36] of 0.24 µg/mL. For the same substance, the In vitro neutralization IC80 [37] was 0.5 µg/mL, the In vitro neutralization IC80 [38] was 0.154 µg/mL and the In vitro neutralization IC80 [39] was 0.291 µg/mL. The In vitro neutralization IC80 [40] was 0.033 µg/mL, the In vitro neutralization IC80 [41] was 1.21 µg/mL and the In vitro neutralization IC80 [42] was 0.035 µg/mL. It also gave an In vitro neutralization IC80 [43] of 0.047 µg/mL, an In vitro neutralization IC80 [44] of 0.13 µg/mL and an In vitro neutralization IC80 [45] greater than 50 µg/mL. For the same substance, the In vitro neutralization IC80 [46] was 3.68 µg/mL, the In vitro neutralization IC80 [47] was 8.22 µg/mL and the In vitro neutralization IC80 [48] was 0.13 µg/mL. The In vitro neutralization IC80 [49] was 0.015 µg/mL, the In vitro neutralization IC80 [50] was 0.26 µg/mL and the In vitro neutralization IC80 [51] was 0.88 µg/mL. For the same substance, the In vitro neutralization IC80 [52] was 0.437 µg/mL, the In vitro neutralization IC80 [53] was 2.79 µg/mL and the In vitro neutralization IC80 [54] was 0.55 µg/mL. It also gave an In vitro neutralization IC80 [55] of 14.2 µg/mL, an In vitro neutralization IC80 [56] of 24.5 µg/mL and an In vitro neutralization IC80 [57] of 0.61 µg/mL.
